# Laboratory results from the DeepSol protein solubility set.
# Assay: soluble on expression in E. coli; label from the status in PepcDB or PDB records
row,Sequence,soluble on expression in E. coli
1,MDEKIAPHLEELTRALGDLEKTGIRAEFYKLLAFRVSPEVAKETILRKFGGKRKILKVKDLSASLKNFEITGRILDMGEKALRPQEGVQDGPSKLYTGILADETGSVMFSSWKELPGSIGDVINIKNAYTRLWQNRIRLSIGEQSLVSGVSDSSLPGLSELSKTPLKKLIEIGSADFSVSTTACVLQLSHREVPVRGKQSKVISGVLADETARLPFTAWVELPGIDIGSIIRIEGAQIRMFRGMPSINFISSTRISPVPAEEAEKLAFTFESSSKDPSPIKIEEIASRDSMFDVVTAGNIVSVRPGSGIISRCPECSRVIQKSNCRVHGRVEGIRDMRIKAVLDDGTGAMSVMFPRELAEIIYGKTLEEAEQLMFSDISKDAVYEDLRRFLTGRYLAVRGNSSNGEYGASFVAENAWVPEDDLAVRVVELLRRLGPDEGEQSSEVSREGISFALEHHHHHH,soluble
2,MDELLNRLRQTWHSTIPVSEFMQIAPLSFTDGELSVSAPLAPNINLHHTMFAGSIYTIMTLTGWGMVWLQQQLLNVDGDIVLADAHIRYLAPVTSAPEVKVRWPDTNLSPLQRGRKAKVKLEVQLFCDGKLCAQFDGLYVSVPKMLEHHHHHH,soluble
3,MDFDYVIAGGGSAGCTLAARLSEDPSKTVCLIEAGGAGSNLLIRAPAGIIALLPGRPKINNWAFETVPQQGLGGRKGYQPRGKALGGSSAINAMLYTRGHRGDYDEWADLGCDGWSWDEVLPYFRRAEGNQRGADALHGGDGPLRVAEQQEPRPLSRAFVEACGENQIRRNDDFNGVEQEGAGLYQVTQFWGERRNGERCSVAAAYLQPAMNRSNLTVITGAHATAVILDGKRATGVRYRAGKDEAVAKARREVIVCGGAFGSPQLLLLSGIGPAAELAMHGIPVIHELPGVGKNLQDHLDFIMGWTSKDADMMGIGLRGLPGLLRHMLRWRKDGGGMIATPYAEGGAFLKSDPAIERPDLQLHFCIAIVDDHGRKLHMGYGFSCHVCVLRPHSRGEVGLSTHDPMAPPRIDPRFLSDERDAELLLKGVRMMRGILEAPALARYRHKEIYTAGVSSDADLMSHIRARADTIYHPAGTCKMGVDELAVVDPQLRVHGLEALRVVDASVMPTLIGGNTNAPTIMIAEKAADMIKAAALEHHHHHH,not soluble
4,MDFECQFVCELKELAPVPALLIRTQTTMSELGSLFEAGYHDILQLLAGQGKSPSGPPFARYFGMSAGTFEVEFGFPVEGGVEGSGRVVTGLTPSGKAASSLYIGPYGEIEAVYDALMKWVDDNGFDLSGEAYEIYLDNPLEHHHHHH,not soluble
5,MDFETNEDINGVRFTWNVFPSTRSDANSNVVPVGCLYTPLKEYDELNVAPYNPVVCSGPHCKSILNPYCVIDPRNSSWSCPICNSRNHLPPQYTNLSQENMPLELQSTTIEYITNKPVTVPPIFFFVVDLTSETENLDSLKESIITSLSLLPPNALIGLITYGNVVQLHDLSSETIDRCNVFRGDREYQLEALTEMLTGQKPTGPGGAASHLPNAMNKVTPFSLNRFFLPLEQVEFKLNQLLENLSPDQWSVPAGHRPLRATGSALNIASLLLQGCYKNIPARIILFASGPGTVAPGLIVNSELKDPLRSHHDIDSDHAQHYKKACKFYNQIAQRVAANGHTVDIFAGCYDQIGMSEMKQLTDSTGGVLLLTDAFSTAIFKQSYLRLFAKDEEGYLKMAFNGNMAVKTSKDLKVQGLIGHASAVKKTDANNISESEIGIGATSTWKMASLSPYHSYAIFFEIANTAANSNPMMSAPGSADRPHLAYTQFITTYQHSSGTNRIRVTTVANQLLPFGTPAIAASFDQEAAAVLMARIAVHKAETDDGADVIRWLDRTLIKLCQKYADYNKDDPQSFRLAPNFSLYPQFTYYLRRSQFLSVFNNSPDETAFYRHIFTREDTTNSLIMIQPTLTSFSMEDDPQPVLLDSISVKPNTILLLDTFFFILIYHGEQIAQWRKAGYQDDPQYADFKALLEEPKLEAAELLVDRFPLPRFIDTEAGGSQARFLLSKLNPSDNYQDMARGGSTIVLTDDVSLQNFMTHLQQVAVSGQA,soluble
6,MDFLDFEKVFSFYSKATKKGFSPFFVPALEKAEEPAGNFFLDRKGNLFSIREDFTKTVLNHRKRYSPDSQIKVWYADFVYRYSGSDLVAEYQLGLEKVPRNSLDDSLEVLEIIVESASEFFEGPVIVEIGHTGVYEDLLKEIPKDLHEKVLNLIDTKNLAEIEFLSHMKKIDLSRVEKIIEDSIYRRSPEHLKTMDLPLSVREDLLSASSFLQEKFPTVSVEIDLTLARTIEEYCGLIFTIYDTSSSRLVAAGGEYTVNGEKGVGGSIFLEGKTC,soluble
7,MDGFGSHPRTLAVDQWMDIVNGKGYGVGGTTQVYSTRPDSPKFQPSIPPPPGSTSKTRTTATPWRLIDAETKRKKRIATYKTYALEGKVKSTVKKGFHWIKDRYSHIIHG,soluble
8,MDGNDINIQKNEFSRDQSALLMMDQHSDHKNHESAIGEPGMSYTASQPALSSTEHQTPLVSEASVAAPQNHLNGNSHESVSEMDRNSVDFAIESVLMKARAYNKMGAPKDPRRKQHNPKSEPKIEPHVTDSSDNQAAMSNKMEAEAPKMESNQNYVSNGSEPPFRFVSISNFDEMKTKKKEVQEELKLEVDSDSEEDDVPEQKTPKESDRCGGCGKFTHEDDLIALEEEKKKEKEKPLMSKKKSHHHKKNDFQWIGCDSCQTWYHFLCSGLEQFEYYLYEKFFCPKCVPHTGHSIRYKVVAPHRYRWYSPNEKHLGIEVGSKTWIEDFITRENTVPSPTDDEVCIVEDGYEFRREFEKLGGADNWGKVFMVKDMDGLNMTMPKPGFDLEDVVKIMGSDYEVDTIDVYNQSTYSMKLDTFRKLFRDTKNRPLLYNFLSLEFSDNNEMKEIAKPPRFVQEISMVNRLWPDVSGAEYIKLLQREEYLPEDQRPKVEQFCLAGMAGSYTDFHVDFGGSSVYYHILKGEKIFYIAAPTEQNFAAYQAHETSPDTTTWFGDIANGAVKRVVIKEGQTLLIPAGWIHAVLTPVDSLVFGGNFLHLGNLEMQMRVYHLENAIRKEIRSEEKFYFPNFELLHWMYMRNVLLEKITEANQEGSDMREQEKNIWTASQIMKAEMERWMDRELRLGPEKNAILPTDDKNKIMISVRKQIEIQTKIQNAKNKPMGLKQKRKSRESAERDDEDYCPSSSTAYKKKYTKKAKKDNDDAPKVKKAKKEEVPEEKVPVPEAAGPSEVTAPLTIKIGMGPTEDQKGVVQIFNNQCTSSGRKVKLNQNVADYCGSHLEARVEEIPEKATKSFRELDNELERCEAVHSGEKIKKVKEPKPPKQPKEKKEKPPPKKKEMSSRDRLMKKLKM,not soluble
9,MDGVHDLAGVQGFGKVPHTVNADIGPTFHAEWEHLPYSLMFAGVAELGAFSVDEVRYVVERMEPRHYMMTPFYERYVIGVATLMVEKGILTQDELESLAGGPFPLSRPSESEGRPAPVETTTFEVGQRVRVRDEYVPGHIRMPAYCRGRVGTISHRTTEKWPFPDAIGHGRNDAGEEPTYHVKFAAEELFGSDTDGGSVVVDLFEGYLEPAA,soluble
10,MDHLPIFCQLRDRDCLIVGGGDVAERKARLLLEAGARLTVNALTFIPQFTVWANEGMLTLVEGPFDETLLDSCWLAIAATDDDTVNQRVSDAAESRRIFCNVVDAPKAASFIMPSIIDRSPLMVAVSSGGTSPVLARLLREKLESLLPQHLGQVARYAGQLRARVKKQFATMGERRRFWEKFFVNDRLAQSLANADEKAVNATTERLFSEPLDHRGEVVLVGAGPGDAGLLTLKGLQQIQQADIVVYDRLVSDDIMNLVRRDADRVFVGKRAGYHCVPQEEINQILLREAQKGKRVVRLKGGDPFIFGRGGEELETLCHAGIPFSVVPGITAASGCSAYSGIPLTHRDYAQSVRLVTGHLKTGGELDWENLAAEKQTLVFYMGLNQAATIQEKLIAFGMQADMPVALVENGTSVKQRVVHGVLTQLGELAQQVESPALIIVGRVVALRDKLNWFSNH,soluble
11,MDHRSSSPFLQILPPDEVEKLLHSMKQAKEELETLGNGDESLFLCPQKITHCSTVSWKPNNVLAPALPKQNALNFNGNEQLSHENEAHSEIPSLLTFQEKGEEDTVEVTRDNYNEIDTVEDFRSIEPALENSPKILVDDSMEATQTFIEETNDFQNDTVHSLDGTLEIENRRLCLLGMLVEMKEICKSVKVDLLLNLIPDLAPVAVQACNSASSLSRKEAIYCLVYMVKQVGAEEMEKYLEPLTTAKRTLLQIYIDRSSKDDSK,not soluble
12,MDIAEQLIQNAGKRSTPVRSAVLGVLLNAEDVLSHSEVLEHLQQLGAFDRVTVYRALDWLVTQGLVHKVAGAGRAWRFQVTRSESMHRHAHFQCHHCHKVFCLPEVQPVLPKELPSNFSIDSIELNIKGICADCGRAMMSQ,not soluble
13,MDIKIIKDKKNPLLNRRELDFIVKYEGSTPSRNDVRNKLAAMLNAPLELLVIQRIKTEYGMQESKGYAKLYEDADRMKQVEQEYVLKRNAVPGSETEGEEALEHHHHHH,soluble
